Assays:
[1] = target: lactate dehydrogenase from Lactobacillus helsingborgensis (Lactobacillus helsingborgensis); experiment: SEC-MALS
SEC-MALS = target: the molecule itself; experiment: SEC-MALS

stoichiometry N [1]	Molecule	stoichiometry N (SEC-MALS)
8	lactate dehydrogenase from Lactobacillus helsingborgensis (enzyme)	
	lactate dehydrogenase from Lactobacillus johnsonii (enzyme) MTTYYKGFPQSTREEKLHMVNLDELEHEAKYVMPEAAYYYVASGAENEWTWRNNTQAFNHFQIVPRALTGMQNPELNTEFLGMKLKTPVMICPIACHGIANAEAEIDTAKGAKAAGALFAMSTYANKSVQEVQSAVGDSPRFMQLYLSKNWDFNKMVIEESVKAGFTGFFLTVDALVSGYREANLRTNFTYPVPLAFFNEWNGGKGEGQSVAQMYASSAQNIGPDDIRKIKEIADVPVIVKGVECAEDAMLAIGTGADGIVVSNHGGREVDGAPATIDVLPEIAKAVRSCDHRVPIILDGGVRRGSHVFKALALGADLVGIGRPFLYGLALGGAQGVQSVIEQLNKELLIDMQLTGCKTIEDIKHAKIDHINYSADWGISSTSRSVMKPYPVTKENQLTGEAADAVSGASRH	8

Reference: publication PMC9670274 (ACS Omega, 2022)
